Results on 53 sequences are retold here after the Immune Epitope Database (IEDB).

For assay [1], the target named is HLA-A*69:01. Put plainly: IEDB peptide-MHC binding, purified MHC/direct/fluorescence; filed as Kd, often an IC50 or EC50 that approximates it; ≥ and ≤ were set here for values at or beyond the usual limits of such assays.
The target in assay [2] is HLA-A*02:01. The assay is described as above.
The target of assay [3] is HLA-B*08:01. The assay is described as follows: IEDB peptide-MHC binding, purified MHC/competitive/radioactivity; filed as Kd, often an IC50 or EC50 that approximates it; ≥ and ≤ were set here for values at or beyond the usual limits of such assays.
The target in assay [4] is HLA-A*01:01. Described as above.
Assay [5] addresses HLA-A*30:02. The description is as above.
The target in assay [6] is HLA-A*23:01. The assay is described as above.
Assay [7] deals with HLA-A*24:02. Described as above.
Assay [8] addresses HLA-A*02:01. The assay is described as follows: IEDB peptide-MHC binding, purified MHC/competitive/fluorescence; ≥ and ≤ were set here for values at or beyond the usual limits of such assays.
The target in assay [9] is HLA-A*26:01. The assay is described as follows: IEDB peptide-MHC binding, purified MHC/competitive/radioactivity; filed as Kd, often an IC50 or EC50 that approximates it; ≥ and ≤ were set here for values at or beyond the usual limits of such assays.
Assay [10] addresses HLA-A*30:01. The description is as above.
Assay [11] addresses HLA-A*01:01. The assay is described as follows: IEDB peptide-MHC binding, purified MHC/direct/fluorescence; filed as Kd, often an IC50 or EC50 that approximates it; ≥ and ≤ were set here for values at or beyond the usual limits of such assays. The conditions noted are these: source organism: Treponema pallidum.
Assay [12] deals with HLA-A*02:03. The assay is described as follows: IEDB peptide-MHC binding, purified MHC/competitive/radioactivity; filed as Kd, often an IC50 or EC50 that approximates it; ≥ and ≤ were set here for values at or beyond the usual limits of such assays.
Setting [13] is: source organism: Salmonella enterica.
Where [14] appears, read: source organism: Dengue virus 3 Martinique/1243/1999.
The mark [15] stands for this setting: source organism: Dengue virus 4 Philippines/H241/1956.
Setting [16] is: source organism: Dengue virus 1 Brazil/97-11/1997.
The mark [17] stands for this setting: source organism: Vaccinia virus WR.
Setting [18] is: source organism: Zaire ebolavirus.
The mark [19] stands for this setting: source organism: Dengue virus 2 Jamaica/1409/1983.
The mark [20] stands for this setting: source organism: Brucella melitensis.
[21] abbreviates: source organism: Escherichia coli.
[22] abbreviates: source organism: Sudan ebolavirus.
Where [23] appears, read: source organism: Treponema pallidum.
The mark [24] stands for this setting: source organism: Camelpox virus M-96.

A value given as a limit tells only on which side of the number the result lay.

Turning to AIDPRRIVA, the Kd in [1] (setting [13]) and in [2] (setting [13]) was no less than 20000 nM in each case.
As to AIKRRLRTL, in [3] (setting [14]), the Kd amounted to 9.67 nM.
Turning to ALKRRLRTL, in [3] (setting [15]), the Kd is 1.89 nM.
As for ASVKKDLISY, the Kd is no less than 37800 nM in [4] (setting [16]) and 19.4 nM in assay [5] (setting [16]).
Take AYQHALNEL: the figures for the Kd in [6] (setting [15]) and in assay [7] (setting [15]) were 2340 nM and 199 nM, respectively.
Take CIKSHSVSL: in assay [3] (setting [17]), the Kd is 2.3 nM.
Sequence DLVLFDLDE came in with an IC50 in [8] (setting [18]) of no less than 425000 nM.
With DVKKDLISY, the dissociation constant Kd in [9] (setting [19]) turned out to be 369 nM.
Take EKVDAIDGEY: the Kd in assay [9] (setting [19]) was 9410 nM; in [5] (setting [19]), 25.9 nM.
Take ELEPPFGDSY: the values for the Kd in [9] (setting [15]) and in [4] (setting [15]) were 1320 nM and 117 nM, respectively.
On to ENPYKTWAY, for which the Kd in assay [9] (setting [14]) is 2950 nM.
For the sequence ETDLNQWMV, the figures for the Kd in [1] (setting [20]) and in assay [2] (setting [20]) were 0.8 nM and 163 nM, respectively.
For ETLLLLGLM, in assay [9] (setting [14]), the Kd is 133 nM.
Consider EVDSFSLGI, for which the Kd in [4] (setting [16]) came to 7390 nM.
Turning to EWITDFVGKT, the Kd in [9] (source organism: Dengue virus 3 Singapore/8120/1995) was no less than 28200 nM.
FGTNETEYL returned an IC50 in assay [8] (setting [18]) of 27400 nM. This lies in the double-digit micromolar range.
In the case of FIRLKLTKL, in assay [3] (setting [17]), the Kd turned out to be 135 nM.
Take GIQRTVFFVL: the Kd in assay [3] (setting [15]) was 6610 nM.
GKLGLITNT: in [8] (setting [18]), the IC50 was no less than 231000 nM.
In the case of GLLASAPGI, the dissociation constant (Kd) in assay [1] (setting [21]) was found to be 974 nM; in assay [2] (setting [21]), 6.3 nM.
In the case of GLLKKFEFL, the Kd in [3] (setting [17]) amounted to 46.8 nM.
On to GTVLVQVKY, for which the Kd in assay [4] (setting [16]) was determined as 1240 nM; in assay [5] (setting [16]), 5110 nM.
GVFEGIAVL came in with a Kd in [2] (source organism: Mycobacterium tuberculosis variant bovis) of 15.5 nM.
GVSTDIPSA came in with an IC50 in assay [8] (setting [22]) of 2080 nM.
For GWNDWQQVPF, the Kd was determined as 1400 nM in assay [6] (setting [16]) and 1740 nM in [7] (setting [16]).
On to HFQRALIFIL, for which the Kd in assay [3] (setting [19]) was found to be 1730 nM.
As to HLKHHKQCV, in [3] (setting [17]), the Kd amounted to 4.51 nM.
For the sequence HLKNSAENK, the Kd in [10] (setting [17]) is 861 nM.
For IIGTNGNHM, the IC50 in assay [8] (setting [22]) is no less than 144000 nM.
With IKRKLRTLIL, the Kd in assay [3] (setting [16]) amounted to 5800 nM.
Regarding IVDYVTAYG, the values for the dissociation constant Kd in [1] (setting [23]), in assay [2] (setting [23]) and in [11] were 1630 nM, 17300 nM and 2520 nM, respectively.
KALSKLISK: the Kd in assay [10] (setting [17]) is 70 nM.
Still for that read-out and setting: under KIRPTRSVY stands 7.24 nM.
On to KLRPRWLDA, for which the Kd in [10] (setting [16]) worked out at 22.5 nM.
KNISGQSPA: the IC50 in [8] (setting [18]) is no less than 228000 nM.
Same read-out and setting: for KRTSFFLWV the value was no less than 79600 nM.
In the case of KTHTLWSNG, the Kd in assay [10] (setting [15]) was determined as 81.4 nM.
KTSSGRMPV: the Kd in [10] (setting [17]) came out at 1.96 nM.
Consider KTTFSLHYA, for which, in assay [10] (source organism: Dengue virus 1 Singapore/S275/1990), the Kd came to 14.5 nM.
As to KVRSNAALG, the Kd in assay [10] (setting [19]) turned out to be 2.44 nM.
As to LAEAIFKLTY, in assay [4] (setting [19]), the Kd turned out to be 1510 nM.
For the sequence LAIPPTAGIL, the Kd in assay [3] (setting [16]) is 4250 nM.
The sequence LARTAKVKN returned a half-maximal inhibitory concentration (IC50) in assay [8] (setting [18]) of no less than 213000 nM.
For LLKATLLAV, the Kd was found to be 12.7 nM in assay [3] (setting [16]) and 0.03 nM in assay [12] (setting [16]).
Take LLMLCLHHA: in [8] (setting [18]), the IC50 is 404 nM.
For the sequence LLPPELSET, the IC50 in assay [8] (source organism: Human alphaherpesvirus 1 strain 17) worked out at 4890 nM. In other words, the single-digit micromolar range.
With LLSKNTFYL, the Kd in assay [1] (setting [24]) was 536 nM; in [2] (setting [24]), 15.5 nM.
As to LTEIASLPT, the Kd in assay [4] (setting [15]) was 1470 nM.
For the sequence MDLEKRHVL, in assay [3] (setting [19]), the Kd turned out to be 68 nM.
Take MFLITENKI: the Kd in assay [6] (source organism: Dengue virus 1 Nauru/West Pac/1974) was determined as 162 nM.
On to MLKRVRNRV, for which the Kd in assay [3] (setting [14]) came out at 18.5 nM; in [12] (setting [14]) it was 14.5 nM.
Turning to MQKCYFSYK, the Kd in assay [10] (setting [17]) came to 0.527 nM.
As to MRKTDWLPM, the Kd in [3] (setting [14]) was 35 nM.
